Values of other authors in publication PMC7955094.

Molecular target: His19 (UniProt position 19, ILSALHFMAWT)
Details: membrane-bound BM2 tetramer, wild type

Substance: Influenza B virus M2 protein (BM2) proton channel (Influenza B virus (this article's own samples use strain B/Maryland/1/2001; the strain of the quoted pKa study is not stated))
- pKa: 5.1
